Results as given in patent publication US20220048967A1 (published 2022).
Numbering of substitutions follows the chain as printed. Numbered stars: 1 amine (or outer) side, 2 acyl side, 3 side chain; on linkers, the order of the positions; unused ones are H or OH. Square brackets hold non-standard residues; d marks the D form. Side chains are listed from the residue outwards. Ends that are not written are not given here. * marks the point of attachment. C20 diacid = O=C(O)CCCCCCCCCCCCCCCCCCC(=O)*; γGlu = O=C(O)[C@H](CCC(=O)[*:2])N[*:1]; AEEA = NCCOCCOCC(=O)O; Aib = CC(C)(N)C(=O)O

T1: human gastric inhibitory peptide receptor (GIPR) (human, UniProt P48546 22-466)
T1 sequence (looked up): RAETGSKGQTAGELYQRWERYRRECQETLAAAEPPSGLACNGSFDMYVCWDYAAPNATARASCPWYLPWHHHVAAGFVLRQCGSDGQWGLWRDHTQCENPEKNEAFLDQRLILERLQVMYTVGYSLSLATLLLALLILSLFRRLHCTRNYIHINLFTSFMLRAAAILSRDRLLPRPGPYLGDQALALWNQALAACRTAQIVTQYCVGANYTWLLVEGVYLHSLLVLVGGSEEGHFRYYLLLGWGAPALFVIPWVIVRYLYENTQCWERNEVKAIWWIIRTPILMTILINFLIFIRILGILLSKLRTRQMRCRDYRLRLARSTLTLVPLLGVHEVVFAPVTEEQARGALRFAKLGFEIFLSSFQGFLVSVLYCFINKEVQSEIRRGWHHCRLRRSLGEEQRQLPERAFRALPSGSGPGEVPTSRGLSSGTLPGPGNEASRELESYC

B1: Example 247 (peptide)
peptide: YXEGTXTSDYSIXLDXKAQXEFIXYLIEGGPSSGAPPPS
modifications: Aib2, αMeF(2F)6, Aib13, Orn16, (2-[2-(2-Amino-ethoxy)-ethoxy]-acetyl)2-(γ-Glu)-CO-(CH2)16-CO2H on K17, Aib20, D-Glu24, C-terminal NH2
B2: Example 250 (peptide)
peptide: B1 peptide
modifications: Aib2, αMeF(2F)6, Aib13, Orn16, (2-[2-(2-Amino-ethoxy)-ethoxy]-acetyl)2-(γ-Glu)-CO-(CH2)18-CO2H on K17, Aib20, D-Glu24, C-terminal NH2
B3: Example 249 (peptide)
peptide: B1 peptide
modifications: Aib2, αMeF(2F)6, Nle13, Orn16, (2-[2-(2-Amino-ethoxy)-ethoxy]-acetyl)2-(γ-Glu)-CO-(CH2)16-CO2H on K17, Aib20, D-Glu24, C-terminal NH2
B4: Example 336 (peptide)
peptide: B1 peptide with Y1X, X16K, E21A, X24E
modifications: not fully specified; D-Tyr1, Aib2, αMeF(2F)6, αMeL13, (2-[2-(2-Amino-ethoxy)-ethoxy]-acetyl)2-(γ-Glu)-CO-(CH2)18-CO2H on K17, Aib20, C-terminal NH2
B5: Example 248 (peptide)
peptide: B1 peptide with X13L
modifications: Aib2, αMeF(2F)6, Orn16, (2-[2-(2-Amino-ethoxy)-ethoxy]-acetyl)2-(γ-Glu)-CO-(CH2)16-CO2H on K17, Aib20, D-Glu24, C-terminal NH2
B6: Example 253 (peptide)
peptide: YXEGTFTSDYSILLDKKAQAAFIEYLIEGGPSSGAPPPS
modifications: Aib2, (2-[2-(2-Amino-ethoxy)-ethoxy]-acetyl)2-(γ-Glu)-CO-(CH2)18-CO2H on K17, C-terminal NH2
B7: Example 257 (peptide)
peptide: B6 peptide with A20R
modifications: Aib2, (2-[2-(2-Amino-ethoxy)-ethoxy]-acetyl)2-(γ-Glu)-CO-(CH2)18-CO2H on K17, C-terminal NH2
B8: Example 255 (peptide)
peptide: B6 peptide with A20H
modifications: Aib2, (2-[2-(2-Amino-ethoxy)-ethoxy]-acetyl)2-(γ-Glu)-CO-(CH2)18-CO2H on K17, C-terminal NH2
B9: Example 254 (peptide)
peptide: B6 peptide with A20Q
modifications: Aib2, (2-[2-(2-Amino-ethoxy)-ethoxy]-acetyl)2-(γ-Glu)-CO-(CH2)18-CO2H on K17, C-terminal NH2
B10: Example 261 (peptide)
peptide: B6 peptide with A20E
modifications: Aib2, (2-[2-(2-Amino-ethoxy)-ethoxy]-acetyl)2-(γ-Glu)-CO-(CH2)18-CO2H on K17, C-terminal NH2
B11: Example 256 (peptide)
peptide: B6 peptide with A20K
modifications: Aib2, (2-[2-(2-Amino-ethoxy)-ethoxy]-acetyl)2-(γ-Glu)-CO-(CH2)18-CO2H on K17, C-terminal NH2
B12: Example 263 (peptide)
peptide: B6 peptide with A20S
modifications: Aib2, (2-[2-(2-Amino-ethoxy)-ethoxy]-acetyl)2-(γ-Glu)-CO-(CH2)18-CO2H on K17, C-terminal NH2
B13: Example 262 (peptide)
peptide: B6 peptide with A20T
modifications: Aib2, (2-[2-(2-Amino-ethoxy)-ethoxy]-acetyl)2-(γ-Glu)-CO-(CH2)18-CO2H on K17, C-terminal NH2
B14: Example 359 (peptide)
peptide: XXEGTFTSDYSIXLDXKAQXEFVEYLIAGGPSSGAPPPS
modifications: D-Tyr1, Aib2, αMeL13, Orn16, (2-[2-(2-Amino-ethoxy)-ethoxy]-acetyl)2-(γ-Glu)-CO-(CH2)18-CO2H on K17, Aib20, C-terminal NH2
B15: Example 258 (peptide)
peptide: Y[Aib]EGTFTSDYSILLDEK([AEEA-AEEA-γGlu-C20 diacid])AQKAFIEYLIEGGPSSGAPPPS-NH2
modifications: N-terminus assumed
SMILES: CC[C@H](C)[C@H](NC(=O)[C@H](CC(C)C)NC(=O)[C@H](Cc1ccc(O)cc1)NC(=O)[C@H](CCC(=O)O)NC(=O)[C@@H](NC(=O)[C@H](Cc1ccccc1)NC(=O)[C@H](C)NC(=O)[C@H](CCCCN)NC(=O)[C@H](CCC(N)=O)NC(=O)[C@H](C)NC(=O)[C@H](CCCCNC(=O)COCCOCCNC(=O)COCCOCCNC(=O)CC[C@H](NC(=O)CCCCCCCCCCCCCCCCCCC(=O)O)C(=O)O)NC(=O)[C@H](CCC(=O)O)NC(=O)[C@H](CC(=O)O)NC(=O)[C@H](CC(C)C)NC(=O)[C@H](CC(C)C)NC(=O)[C@@H](NC(=O)[C@H](CO)NC(=O)[C@H](Cc1ccc(O)cc1)NC(=O)[C@H](CC(=O)O)NC(=O)[C@H](CO)NC(=O)[C@@H](NC(=O)[C@H](Cc1ccccc1)NC(=O)[C@@H](NC(=O)CNC(=O)[C@H](CCC(=O)O)NC(=O)C(C)(C)NC(=O)[C@@H](N)Cc1ccc(O)cc1)[C@@H](C)O)[C@@H](C)O)[C@@H](C)CC)[C@@H](C)CC)C(=O)N[C@@H](CCC(=O)O)C(=O)NCC(=O)NCC(=O)N1CCC[C@H]1C(=O)N[C@@H](CO)C(=O)N[C@@H](CO)C(=O)NCC(=O)N[C@@H](C)C(=O)N1CCC[C@H]1C(=O)N1CCC[C@H]1C(=O)N1CCC[C@H]1C(=O)N[C@@H](CO)C(N)=O
B16: Example 260 (peptide)
peptide: Y[Aib]EGTFTSDHSILLDKK([AEEA-AEEA-γGlu-C20 diacid])AQ[Aib]AFIEYLIEGGPSSGAPPPS-NH2
modifications: N-terminus assumed
SMILES: CC[C@H](C)[C@H](NC(=O)[C@H](CC(C)C)NC(=O)[C@H](Cc1ccc(O)cc1)NC(=O)[C@H](CCC(=O)O)NC(=O)[C@@H](NC(=O)[C@H](Cc1ccccc1)NC(=O)[C@H](C)NC(=O)C(C)(C)NC(=O)[C@H](CCC(N)=O)NC(=O)[C@H](C)NC(=O)[C@H](CCCCNC(=O)COCCOCCNC(=O)COCCOCCNC(=O)CC[C@H](NC(=O)CCCCCCCCCCCCCCCCCCC(=O)O)C(=O)O)NC(=O)[C@H](CCCCN)NC(=O)[C@H](CC(=O)O)NC(=O)[C@H](CC(C)C)NC(=O)[C@H](CC(C)C)NC(=O)[C@@H](NC(=O)[C@H](CO)NC(=O)[C@H](Cc1c[nH]cn1)NC(=O)[C@H](CC(=O)O)NC(=O)[C@H](CO)NC(=O)[C@@H](NC(=O)[C@H](Cc1ccccc1)NC(=O)[C@@H](NC(=O)CNC(=O)[C@H](CCC(=O)O)NC(=O)C(C)(C)NC(=O)[C@@H](N)Cc1ccc(O)cc1)[C@@H](C)O)[C@@H](C)O)[C@@H](C)CC)[C@@H](C)CC)C(=O)N[C@@H](CCC(=O)O)C(=O)NCC(=O)NCC(=O)N1CCC[C@H]1C(=O)N[C@@H](CO)C(=O)N[C@@H](CO)C(=O)NCC(=O)N[C@@H](C)C(=O)N1CCC[C@H]1C(=O)N1CCC[C@H]1C(=O)N1CCC[C@H]1C(=O)N[C@@H](CO)C(N)=O
B17: Example 264 (peptide)
peptide: YXEGTXTSDXSIXLDXKAQXEFIXXLIEGGPSSG
modifications: Aib2, αMeF(2F)6, 4Pal10, αMeF13 (so in the source), Orn16, (2-[2-(2-Amino-ethoxy)-ethoxy]-acetyl)2-(γ-Glu)-CO-(CH2)16-CO2H on K17, Aib20, D-Glu24, αMeY25, C-terminal NH2
B18: Example 259 (peptide)
peptide: Y[Aib]EGTFTSDYSILLDEK([AEEA-AEEA-γGlu-C20 diacid])AQ[Aib]AFIEYLIEGGPSSGAPPPS-NH2
modifications: N-terminus assumed
SMILES: CC[C@H](C)[C@H](NC(=O)[C@H](CC(C)C)NC(=O)[C@H](Cc1ccc(O)cc1)NC(=O)[C@H](CCC(=O)O)NC(=O)[C@@H](NC(=O)[C@H](Cc1ccccc1)NC(=O)[C@H](C)NC(=O)C(C)(C)NC(=O)[C@H](CCC(N)=O)NC(=O)[C@H](C)NC(=O)[C@H](CCCCNC(=O)COCCOCCNC(=O)COCCOCCNC(=O)CC[C@H](NC(=O)CCCCCCCCCCCCCCCCCCC(=O)O)C(=O)O)NC(=O)[C@H](CCC(=O)O)NC(=O)[C@H](CC(=O)O)NC(=O)[C@H](CC(C)C)NC(=O)[C@H](CC(C)C)NC(=O)[C@@H](NC(=O)[C@H](CO)NC(=O)[C@H](Cc1ccc(O)cc1)NC(=O)[C@H](CC(=O)O)NC(=O)[C@H](CO)NC(=O)[C@@H](NC(=O)[C@H](Cc1ccccc1)NC(=O)[C@@H](NC(=O)CNC(=O)[C@H](CCC(=O)O)NC(=O)C(C)(C)NC(=O)[C@@H](N)Cc1ccc(O)cc1)[C@@H](C)O)[C@@H](C)O)[C@@H](C)CC)[C@@H](C)CC)C(=O)N[C@@H](CCC(=O)O)C(=O)NCC(=O)NCC(=O)N1CCC[C@H]1C(=O)N[C@@H](CO)C(=O)N[C@@H](CO)C(=O)NCC(=O)N[C@@H](C)C(=O)N1CCC[C@H]1C(=O)N1CCC[C@H]1C(=O)N1CCC[C@H]1C(=O)N[C@@H](CO)C(N)=O

Legend:
[1] = biological target: T1, human gastric inhibitory peptide …; assay: cell-based or functional assay
[2] = biological target: human GLP-1 receptor (GLP-1R) (human, UniProt P43220 24-463); assay: cell-based or functional assay

Binder | hGIPR cAMP EC50 ratio [1] | hGIPR cAMP Rel EC50 [1] [nM] | hGLP1R cAMP EC50 ratio [2] | hGLP1R cAMP Rel EC50 [2] [nM]
B1 | 2.58 | 0.0622 | 0.614 | 0.0491
B2 | 4.27 | 0.0376 | 0.985 | 0.0306
B3 | 3.84 | 0.0437 | 0.778 | 0.0446
B4 |  | 0.0312 |  | 
B5 | 5.08 | 0.0328 | 0.8 | 0.0428
B6 | 0.684 | 0.219 | 0.638 | 0.109
B7 | 0.316 | 0.474 | 0.895 | 0.0779
B8 | 1.47 | 0.102 | 1.71 | 0.0407
B9 | 0.695 | 0.215 | 1.26 | 0.0553
B10 | 0.936 | 0.16 | 0.75 | 0.0948
B11 | 0.233 | 0.643 | 1.38 | 0.0506
B12 | 0.473 | 0.317 | 0.906 | 0.0785
B13 | 1.15 | 0.13 | 0.754 | 0.0943
B14 |  | 0.172 |  | 
B15 | 0.0616 | 2.43 | 0.401 | 0.174
B16 | 0.242 | 0.617 | 0.171 | 0.408
B17 | 8.4 | 0.0196 | 3.19 | 0.0229
B18 | 0.582 | 0.257 | 0.482 | 0.145
